Drawing on the NTF2 design screens of Basanta et al. (2020), this text covers protease stability score for 47 sequences.

A short description of this data set: protease stability score; higher = more stable; yeast display proteolysis, trypsin and chymotrypsin.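 Also: log10 excess protease needed over predicted unfolded state with 0 meaning unfolded.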
The sequence “EEQAVEVMNRYIRALQTGSKQDLRDNMDPNVKAIYGDSVIHGREEIARHLVKTMKDIRVENDVRDMRFDGDKIELRAKWVFEHDGRPRTNKYVVHAVAHDGKIKHINLQEDQ” showed a protease stability score of -0.058.
Turning to “DDQKTANHLNKQFKDVWTSGDEHRLQELMDPNVRVDVGDKRYKGDEQVNKYFIDLLRNVDHVDFDVKDMKARGEKVLLVVDIRVDINGKRHRFNARQIFTVEGDQARVKVYHDG”, the protease stability score turned out to be 0.653.
For “DEEVADNFRKLLHNLEQGDKRRVKEMVDENAHIVVGDKVYHGWETAAQDLVRLMHEIHFTITSVHVEVSNGRVRLKVHMKINVNGKPFRMVFTQEIEAENGTVKYINVQFDPEVLRRIES”, the protease stability score worked out at 0.97.
With “DEENLDAARRLIDALKNNDPDHAMENADKDVRVHIGDWHVHGREDMSRLIKELVDEMRVDVKDVKTRKDGETAVITIDAVFHVNGEPKRDTFTMNVKAHNGHVQRIHARVSEEDVRKLKQ”, the protease stability score is -0.086.
As to “DTHKLREHARSMVEAMEDGDPQHLAKLMDENAKVTVGDKDVHGEEQAKRWAREWQKRFDHVEVDDLKVDNGRIRVKFHAQVNGREIFVIVKVEVRNGRIRSLSLEVRDEHVEKRLQD”, the protease stability score stood at 0.909.
As for “DDDQRRKFERFITAVRTGSKEDLNKLIDPNAKINVGNHRYHGMEEFAKQVVTHNKDLRFHVRFKELDFSGNRVRVSYEMTMTVNGKPYQFTARVEFDVHDGSVKSVREQISEDVEQRQRN”, the protease stability score was 0.423.
The sequence “DDDQKRRVEDWWKVLNHGDPDKLRTLADENAKFDVGDKKYHGMTRAADELVRTLREIRLNIRRMEIQVHNGRVVANVDAEVRVNGNPMQIHYTAQMTASNGKITSVQNRIPSEQLKRLRK” gave a protease stability score of 0.165.
Sequence “DEETQFKKLMETMKEQNKRGDPRKHEEYVDPNAKVRVGDQDLHGREDVRRVLQEWAERADHVDLKVESMSVHNGKQTAIMVIVLRYNGRNETRRVQVVFDKSNGTVRLVNLRNS” displayed a protease stability score of 0.856.
“DEEKEETTVEKLAKAVNTGDPDQIEDLADKDVRATIGDRQVHGREEMDRNMKEWEDKIDHLELKSVDVQGESAHANLDQRHNGRHVRMVAIAHVENGRAVEVVFRDQ”: the protease stability score was -0.157.
In turn, “DQEAAQDMRQWINAWNQNNPRKLRKLVDENARINIGEWHLQGRERIHKFAEKLIHEMDVQFSIKSFHVQGNKIKANLRIVANINGRPHEVNANLVVIVHNGHIKEIKATLDEDQIRHLNS” gave a protease stability score of 0.648.
“DETQDKKAERLVKKNNWDEMVRNADKDVRVQVGDYEVHGREDMKRLAKKFKDRYDHVKVDDVQVHNGRVNADMKATVDGHTIRFILQADIHNGRFKYMTLQARSSEQEKHLKRLFQ” yielded a protease stability score of 0.475.
As for “DEERVQQMLEQAFKAIQNGNEEQMQKLGKPNVEYKYVDHEYEGPDAARVMVQLVKRVGAEVKQQKVEVKGNTATAVFQYHDGDQTVETTAEVEYEGDKMKKARVELTDEVKKVVHKG”, the protease stability score was -0.117.
Sequence “DEHHEARKMIKHYFELLNQGNFEEAAKLFDEDAKVHVGDRTVNGREQIHDWFTRMRKQIDEFTVRLTKVEVSNGHVRVDFYYTKNHNGKSKSNSVDMIFQNNNGRIRAKSMQEK” displayed a protease stability score of -0.085.
“DEKKATKVAKQIQDMMVKGDSDKVEKVGKPNVEFQVGDVKMKGPDELKKYYKKVKDVGNELHVKEAKVEGDTVEVHYDLRHGGTQATVTVRIELKDDKVDRAKVDVDEHYKKIVKKG” yielded a protease stability score of -0.068.
Sequence “DETDLEKFATIVQQNNPHEFKKLLPEDAKMTYGDKTVHGREEIQRILENLVKDVDRLRIKHYKISGDKIEIDLVVNVNGRNIRFSLRAKMHNGQIKFFEIEVRDDDVKHELEKMLS” displayed a protease stability score of 0.069.
Consider “DEKEIQKLLEQLMKMFVNGNDEQIKKLGKDDVEATYMDEKVTGPDKVVELVKKYMDLGVKVEYKEEHVEGDKATAKVEADAGGQTVRFHVHYKATGRKMDRVEVQYDETAKKVIKHG”, for which the protease stability score was -0.131.
In turn, “ERERNQKLAEIFAQAVETGDPEQAQKMAPPDVKAQVGDHQFRGREEIHKMIETIRRRADHARLKDMTVDGDKITIVVQFNVNGKEVNVVFHITVRNGVATEIELRSK” had a protease stability score of 1.26.
Then “DEKELKKVLERLVKAFKNGNTEEAKKLGKDDVQVEYGDEKYEGPDAMRTVLERVKKLGYEVEYKEEHYKGDTVTVKVEANLGGRTAKFRFQYQVQGQRVDKVKVEYSETAQKQIKHG”, with -0.106; and “DEETRKRVETLLEALETGNPEEISKQIDPNATVVVGDKTLHGREDIRDWVRRQHEKIRVEYKHVQIRIHNGRAHVTFEAVVEVNGKPKTVRAQMVFTVSNGKFQHIELHLDEEWKKMEKG”, with 1.38; and “DEDKQHEFATRNVKAWETNDENQMRRLMDPNAKVRIGDKEYRGREEILRLLNEFKKRVDHVQVKSYDVHNGHVHINIVASVNGQRHEMHVKFQFHNGEIVKMQIDDS”, with 0.203.
As to “DEEKAKHRVEEFTQLLQENDWDHLANMADENARVQVGDQVYDGRKDIERWAKQVKERVDNVTVKEMSVSGNKMNANVEFQINGVTVRATIEIDFHNGKAKHMRVDPDVVRKQSR”, the protease stability score was 0.727.
“DDENRHMAEEMMQIFKHGDHDRHRQLIDPNVKVKIGDKEYHGMEKLVQRHKEEVDQIRFEVKTVSVHNQGDKLKVEWRYVADFNGRPHDVRDDYTIDVRNGKVRSIDYNVDPRELETLLR” displayed a protease stability score of -0.128.
Turning to “DDKQLDERVKEIQEVIRDNDPDSMKHLMDPNARMFVGDKEFHGRDEIVRHLKDLWHRVDHFHIKDFRASGNRAVVIAVFHVNGVTAHFKIFVVFQNGRIKQLRIKWRNEDEERRVRS”, the protease stability score was 0.674.
With “DDDASRRFHEFVKLVRTNNPHKAMEMVDPNARFHIGDKEIHGREDVRRWVSRMLREARVTIDLKSLDVQGEKVKVTNLVRRRHNGEPQQMSVHAQVVWHNGKIKQETAHFKG”, the protease stability score was 0.127.
Regarding “DEKQNAEKVMTDVERNLREGDDNKIKEMADKDAKADVGEKKVTGREDIAKMLATLNKSVDEVTLDLKHVTTQGDFLNVKADIKWRHNGTTRQNKVEMWVNDFNGNVVIKHLRIG”, the protease stability score came to 1.08.
As for “DEESKKQIDNWLKAVQQGDPDQLVKNVDKDVTVEYGDKSIHGRESLMKTLEDKKKQWRLEFKSVDVDVHGDKARLDVDVVLQINGQPFRHTRTIHVHLHNGRVKHMRFRFDEQQQRDMDR”, the protease stability score is 1.12.
For the sequence “EDTALKIARTLFDILESNNPDEFNKLADPNARVDVGDKKIHGREEIKKQMETEIQQLRVHYEIKRYDSRPNRAHVIADVEVNHNGQPQSHKLVMRLHFKNGKVTEIKFEYRK”, the protease stability score is -0.053.
As to “DREEQSEFAKKFLEVVMHGDPKKIRKLADPNAKADVGDKKYHGRESMAKWAHDFRKEVDHIEFKDLKVDGETARLDVVYDVNGHKERQVVVVTAHNGRVKHMQVEEG”, the protease stability score was -0.18.
The sequence “DEQWLNRLNRVFEHNNEEDLIKNMDPNVRVEIGDKRVRGRHKVKEALDRLKEEADHLQLKSVHVQGDKVSATMEMVVNGKHVQMTVTIEFTNGRIKNQRYKATDEKDKKVINDIMG” returned a protease stability score of 0.34.
The sequence “DEEQAHRLNEVLKTGDFERLKDQADPNVRIEVGEKRYHGREQFQKFMTIVQETVDDVHVRSIKVRGDTVNVHMVLNVNGVKAEFIVEAHVDDGRVKEIRFRATDDEQKKNWRKIVQ” returned a protease stability score of 1.11.
In turn, “DERTNTEMLKRLQHALQKNDPNEVRKLFDKDVQVQIGDKTLSGREQLLTEAEQRRKKIDDIEVTDMKSNPDHAVLSVVIKHNGRNRKVIYYIRWSNGKVRKVEERES” registered a protease stability score of 1.5.
Then “ETEELHKMTELIDNMQRGNPQKFNEMVDPNAQFEVGDKTIRGREELSKELHRKRREMRRSLRSVKVRLSGNHFDIRVTFRETHNGQPDDRRQRIVIIVSNGRIKSVRVDEDG”, with 0; and “DEEDNTRLVNLFEHNDWDTIADQADPEAQLVIGDKTYTGREEVKKALSTLVERVDRIEFKRFDVHGNKIHVKMELRFDGRNIELVMRITIKNGRIKSIKIRARDKEVEKILKEMHS”, with 1.22.
On to “DEDAMKRFKDLLRAQETGDEHRIRELVDPNAQFVIGDRKITGREEYVRIFREERENMHIDLEVKSVSVKGNKLTIHLTFKVDHNGKPMRASAQIQVKIRNGRIQEVQYDFDEDQLRKLKR”, for which the protease stability score was 0.32.
The sequence “DEDEMKNVLELIRVMSKGDEDRIRERADPNVKVNIGDKRLQGREELARQASTEKKKMDIHIRVDSVHVHDGNVLIVYKRENHYNGEPNRDEQRFQAQASNGNLKNMSWRFDEDKKRKIET” displayed a protease stability score of -0.038.
“DNEDAKRVVKLAEHNDFKKWAENADKDVRMKVGDKTWHGRSQFSTAVERLQKNIDHVDLRSVKTHNGRVTIKEQQEVDGRKTDVRFRLQVHNGHIKRVEVQVTDEEDKKTMEKLLS” came in with a protease stability score of -0.23.
On to “DEQAMSVAEELISALNTGNEDQVDRLMDPNAHLQVGDKRLHGREEVRRHVKTLKDQARFDMKVDSLRVQGEKVRLDATYTFEVNGRPREDRVIIDMTLTNGTVKRIRFNFDPDDWRKMEG”, for which the protease stability score worked out at 1.04.
As to “DEDAERHVTEMIHAYKHNNPEKVQTYMDKHVKIKVGDKTVKGREERAKELRKQKDQMRVDYDVHSMNVKGDKITARLRVDITVNGQPHTFEYHLIVKWTNGKIQELSVEFPEEDQKKQSR”, the protease stability score is -0.086.
“DEERKEQLLEIYKAIDTGNPEKVKELADPNAHVQYGDKSVHGMDDAVRQLEKRRKEIRIHWDVKSVHVEGNKVDVVAENEEEHNGHPRSHTVRVNAEFQGDKMKNAHYQSDK” gave a protease stability score of -0.202.
Regarding “DSHAHNVADEVMRALQENDEDSLRQLLDPNVEFHIGDTTYHGREQVRHWITRLKEQMRVKFDLKDLKVQGDTVHIKLRLEQEHNGQPRQHNVVINVKIDNGRVKKISFQHTK”, the protease stability score is 1.64.
On to “DEKKQAEDFFDTWVEIVKSGDEEKAQQMADPNVRFQIGDKSWRGREDFKKFLKTQLKRADHIRFEVQRITVRPNHIEVQFRIVIDNNGQDSRDTLTFVIKVNGDRLRLVEMHEG”, for which the protease stability score amounted to 1.43.
“DETQMKHLAEEFNKAQKRGNEEKLRELIDKDVTMKVGDKEVHGRERVADKMRKMIERADSISIRDVKSQGDRAEIDMEYRVDGRHRVVIVILRFSNGRIVYAEFQSS” displayed a protease stability score of 1.08.
To “DEEVLDTVLKALSTNNEEQFHRMADPNDRVSYGDKSIHGMVKAADVQREFRKRVDHIHIQRYDSEGDKAKVTYVAHVDGRNINITITFDVRNGTIRSINIRARNEKNQKRFEEVVG” belongs 0.245; to “DEELDKRIVDALHAIQKGDERRLRQLFDKNVSFKVGDEEYHGMENYAKDQKRRRDKIRVQLQSVDAKHQGDRAHVDVQRELDINGRPRTVRMIVVAHAKNGRVKNMSMNVDPKEIRELDT”, -0.159; to “DREKEAHELIEHFVRMLETGDEEKFKEMMDKDAKLHVGDKDVHGRDDVDRHLAQEYKQYDHVHFRVKDVKVRGDTIEAQVEVQFDHNGKTDTRTYRFVMRVDNGDVKFQSVSNS”, 1.45.
With “DDHKLAEDIIQEFHEAMERGDPDQIQKLADKDVTINYGDKRIRGRETATRFWREVMDRIDHVEVTIRELRVKGDKIQFVVLINQNHNGQTTNRHVEASVEVHGDKYRNKSFQFQ”, the protease stability score stood at 0.35.
The sequence “DEDAVRKAKQWVKALRDGDEDELREQVDPNARINVGDKTFHGMDEFVKDVLKTHSEQRVNFDIKSVNASNGRVDMKMDATFDINGEPKTFSLVLTVDFHNGRAKQLEVKFDPKVKEDLTK” gave a protease stability score of 0.769.
